Reference: patent US20100286027A1, “ANTI-BACTERIAL COMPOSITIONS” (priority 2008, published 2010)

How the values were obtained:
H. influenzae NB65027 = details: aerobic gram negative
S. aureus = test: Bacterial growth inhibition (FIG. 14, FIG. 16); format: cell-based, Staphylococcus aureus
Procedure: Values shown are relative to controls incubated in the absence of LRR domains (100%).
This inhibition was unaffected by the co-administration of MDP, LPS, or PGN.

Escherichia coli (8739) = test: BacTiter-Glo bacterial ATP content viability assay; details: gram −, +/− SD, n = 3, >100 = activity detected but <50% inhibition
E. coli [1] = test: Aggregation of E. coli in vitro, light microscopy; set-up: species or system Escherichia coli; details: 10^6 E. coli in 1 ml PBS, 20 microgram/ml protein, 12 hours
Procedure: FIG. 4: Aggregation of E. coli in vitro following incubation with recombinant Nod2 LRR domains. E. coli (10^6) in 1 ml of PBS were incubated with either 20 microgram/ml BSA or purified recombinant Nod2 LRR domains for 12 hours. Aliquots of the cultures were inoculated on a coverslipped slide and analyzed by light microscopy using a 63× objective.
The Nod2 positive staining of the bacteria in the cytoplasm of cultured cells could either be a direct interaction or result from the colocalization of Nod2 and bacteria in an unidentified vesicular structure. In order to test the hypothesis that the interaction between Nod2 and E. coli was direct, purified recombinant LRR domains from Nod2 were incubated with E. coli (FIG. 4). […] This supports the hypothesis that Nod2 LRR domains can directly interact with E. coli.

B. subtilis = test: Membrane polarity, DiBAC4 uptake by flow cytometry; details: FIG. 11 Panels B and C; 5×10^5 bacteria in 100 μL, 2 hours at 37° C.
[2] = system: Clostridium difficile NB95002; test: MIC against anaerobic bacteria; format: cell-based
[3] = system: Clostridium ramosum NB95010; test: MIC against anaerobic bacteria; format: cell-based
[4] = system: Streptococcus pneumoniae (ATCC 49619); test: Gentamycin protection assay in stable 293 cell lines; details: 293 cells stably expressing the protein, infected with S. pneumoniae at MOI 10:1, versus control cells
[5] = system: lawn of the indicated bacteria; test: Agar diffusion assay; details: FIG. 11 Panel D; 0.5 mg/ml in sterile PBS per well
[6] = system: Pseudomonas aeruginosa (27853); test: BacTiter-Glo bacterial ATP content viability assay; details: gram −, +/− SD, n = 3, >100 = activity detected but <50% inhibition
[7] = system: Klebsiella pneumoniae (700603); test: BacTiter-Glo bacterial ATP content viability assay; details: gram −, +/− SD, n = 3, >100 = activity detected but <50% inhibition
[8] = system: P. aeruginosa NB52020* (mexAB/oprM efflux pump mutant); test: MIC against aerobic gram negative bacteria, efflux pump mutant; format: cell-based, Pseudomonas aeruginosa; details: aerobic gram negative; P. aeruginosa NB52020*, mexAB/oprM efflux pump mutant strain
E. coli NB27004 = test: MIC against aerobic gram negative bacteria; format: cell-based, Escherichia coli
L. monocytogenes = test: Bacterial growth inhibition (FIG. 15); format: cell-based, Listeria monocytogenes; details: FIG. 15 Panel C
[9] = system: H. influenzae NB65027-CDS0021* (TolC efflux pump mutant); test: MIC against aerobic gram negative bacteria, efflux pump mutant; format: cell-based, Haemophilus influenzae; details: aerobic gram negative; H. influenzae NB65027-CDS0021*, TolC efflux pump mutant strain
[10] = system: E. coli NB27005* (TolC efflux pump mutant); test: as above; format: cell-based, Escherichia coli; details: aerobic gram negative; E. coli NB27005*, TolC efflux pump mutant strain
[11] = system: Clostridium perfringens NB95001; format: cell-based; details: anaerobic
Bacillus Subtilis (6633) = test: BacTiter-Glo bacterial ATP content viability assay; details: Bacillus Subtilis (6633), gram +; +/− SD, n = 3; >100 = activity detected but <50% inhibition
[12] = system: Prevotella intermedia NB88001; test: MIC against anaerobic bacteria; format: cell-based
[13] = system: Streptococcus pneumoniae (49619); test: BacTiter-Glo bacterial ATP content viability assay; details: gram +, +/− SD, n = 3, >100 = activity detected but <50% inhibition
E. coli [14] = test: Membrane polarity, DiBAC4 uptake by flow cytometry; details: FIG. 11 Panel A; 5×10^5 bacteria in 100 μL, 2 hours at 37° C.
[15] = system: Bacteroides fragilis NB85001; test: MIC against anaerobic bacteria; format: cell-based
[16] = system: Stenotrophomonas maltophilia (17666); test: BacTiter-Glo bacterial ATP content viability assay; details: gram −, +/− SD, n = 3, >100 = activity detected but <50% inhibition
porins (OmpC and OmpF) = test: LRR domain affinity column and mass spectrometry protein identification; details: guanidinium HCl extract of detergent-insoluble E. coli fraction; SDS-PAGE, mass spectrometry
[17] = system: Enterococcus faecalis (29212); test: BacTiter-Glo bacterial ATP content viability assay; details: Enterococcus faecalis (29212), gram +; +/− SD, n = 3; >100 = activity detected but <50% inhibition
[18] = system: Listeria monocytogenes (7644); test: BacTiter-Glo bacterial ATP content viability assay; details: Listeria monocytogenes (7644), gram +; +/− SD, n = 3; >100 = activity detected but <50% inhibition
[19] = system: Fusobacterium nucleatum NB86006; test: MIC against anaerobic bacteria; format: cell-based
P. aeruginosa NB52019 = test: MIC against aerobic gram negative bacteria; format: cell-based, Pseudomonas aeruginosa

B1: Nod2: purified recombinant LRR domain of Nod2 expressed in E. coli; human NOD2-LRR is SEQ ID NO: 3; ~30000 da (protein, listed as Homo sapiens)
chain: PAAPGEAKSVHAMPGFIWLIRSLYEMQEERLARKAARGLNVGHLKLTFCSVGPTECAALAFVLQHLRRPVALQLDYNSVGDIGVEQLLPCLGVCKALYLRDNNISDRGICKLIECALHCEQLQKLALFNNKLTDGCAHSMAKLLACRQNFLALRLGNNYITAAGAQVLAEGLRGNTSLQFLGFWGNRVGDEGAQALAEALGDHQSLRWLSLVGNNIGSVGAQALALMLAKNVMLEELCLEENHLQDEGVCSLAEGLKKNSSLKILKLSNNCITYLGAEALLQALERNDTILEVWLRGNTFSLEEVDKLGCRDTRLLL
notes: purified recombinant LRR domain of Nod2 expressed in E. coli; ~30000 da
- minimal inhibitory concentration (MIC) (H. influenzae NB65027): >128 microgram/ml
- growth of S. aureus (S. aureus; FIG. 14 Panel B, increasing concentrations, relative to controls (100%)): inhibits the growth
- effect of co-administration of MDP, LPS, or PGN on inhibition of S. aureus growth (S. aureus; FIG. 16): unaffected
- growth of S. aureus (S. aureus; FIG. 16): inhibited the growth
- antibacterial activity by bacterial ATP content (IC50), [LRR domain] (Escherichia coli (8739)): >100 microgram/ml
- aggregation of E. coli (E. coli [1]): aggregated and debris could be observed
- membrane polarity of B. subtilis (depolarised bacteria taking up DiBAC4) (B. subtilis): influence
- minimal inhibitory concentration (MIC) [2]: 4 microgram/ml
- minimal inhibitory concentration (MIC) [3]: 4 microgram/ml
- number of gentamycin-protected intracellular bacteria [4]: drastically reduced
- anti-bacterial activity by agar diffusion assay [5]: Anti-bacterial activity
- antibacterial activity by bacterial ATP content (IC50), [LRR domain] [6]: None detected
- antibacterial activity by bacterial ATP content (IC50), [LRR domain] [7]: None detected
- minimal inhibitory concentration (MIC) [8]: >128 microgram/ml
- minimal inhibitory concentration (MIC) (E. coli NB27004): >128 microgram/ml
- L. monocytogenes growth (L. monocytogenes): inhibited
- minimal inhibitory concentration (MIC) [9]: 4 microgram/ml
- minimal inhibitory concentration (MIC) [10]: 32 microgram/ml
- minimal inhibitory concentration (MIC) [11]: 4 microgram/ml
- antibacterial activity by bacterial ATP content (IC50), [LRR domain] (Bacillus Subtilis (6633)): 3.9 +/− 0.6 microgram/ml
- minimal inhibitory concentration (MIC) [12]: 4 microgram/ml
- antibacterial activity by bacterial ATP content (IC50), [LRR domain] [13]: 3.0 +/− 1.6 microgram/ml
- membrane polarity of E. coli (depolarised bacteria taking up DiBAC4) (E. coli [14]): influence
- minimal inhibitory concentration (MIC) [15]: 4 microgram/ml
- antibacterial activity by bacterial ATP content (IC50), [LRR domain] [16]: None detected
- porins (OmpC and OmpF) identified in eluate of LRR affinity column (porins (OmpC and OmpF)): specifically identified in the eluate
- antibacterial activity by bacterial ATP content (IC50), [LRR domain] [17]: 6.8 +/− 1.6 microgram/ml
- antibacterial activity by bacterial ATP content (IC50), [LRR domain] [18]: 13.7 +/− 13.0 microgram/ml
- minimal inhibitory concentration (MIC) [19]: 8 microgram/ml
- minimal inhibitory concentration (MIC) (P. aeruginosa NB52019): >128 microgram/ml
